B1: 71 (protein, listed as Burkholderia dolosa)
chain: MARAGHRAARTRQSRPGDRTMTCSCCMSAGRRRVLGAFAALAGAPKGPRAASAAQPAAASKPTRGDATARNRHSRALLPGKASASWSATKASGSGGAFAWDDTTFTFRTPAGGLGPLPMKFIDVDARLRDMDASGVDVQALSLSVPMAYWGDRPFNAKLARAWNTAASRVHVRAPDRFVVLATLPMLDATDAIDELERASELPGVRGVYMGTNIDNRDLDDPRFAPVFARIEQLGLPVFLHPQQTVGGARLGDFYLSNLLGNPFDTAIAASHLILGGVLDRHPALHFTLPHAGGALPILVGRLDAGWTVRAETRRLAHQPSGYLRRFSYDTVSHSGPVLNFLIENVGIDRLVLGSDYCFDMGYEQPVRFLDRLDLTPDERAMVIGGNAGRLLRI
B2: 70 (protein, listed as Alicyclobacillus acidocaldarius)
chain: MAIEPNRAADVHTHFLPTEVLEFLKREPRIQVDLERRAPDKEPFLTVEGRWSFELKRMFVDFEAFASAYRQAGIGLALVSPLPQLFVYHLPAEMGAQVAEVYNDALRDVLAPHRERFRPLATLPLADPTAAARELERRMDEGFVGAIVGPGVGEALIGDEAFWPLWEVADARRAVLFLHPLLHADPRAARLMLPNLVGVPWETTLAAAHLVLSGLLDRYPGARVLLAHGGGFLPYQIGRIEQGYDVWPQVRGRLQDRPTAYLRRMFYDNVLWSDAALRCLIDVVGADRVLAGSDFPFDLSAWPPRPGADVSVLAGGSGREGRLS
B3: 68 (protein, listed as Hoeflea phototrophica)
chain: MAIIDAHTHTLCPAVNEKVAGTIKPDSVPYQRDMSPESKEQDHTQFPELKIMFNQVERRLADMARMGIDRQVIAPAPGQQHYWAEPKLLAEISALQNDHVAELVARAPDRFAGIGTLPMTDPDAAVAEITRATRELGLRVFQIDSRVMERELSDASLDPIYAALEAAGAGLMIHPLGFSNGERLTPFFMVNSVAQPLEELLAFNHLVFGGVLDRFPKLKVYIAHGGGFAPFYIGRFDHAWKVRPEVNRLTPSAPSTYLRRIYFDTCVYRTDHIETLVRTVGADRVMLGSDYPFDMGDTDPLGLLNACQGLSDDEKATISSKVAIDFFGLET
B4: 60 (protein, listed as Catenulispora acidiphila)
chain: MARGFVRTAVVPGFWDAGWRGAGQPGGMRVDVHAHLFPAAYLDLLDDFRQDGGVGTREVRALGGGDGERELRLRLAAMDAVGVDVQLLSTCPQGPYTGDPTAAVEAARCANVALAQTVAQYPERLRALAALPLPHILASVDELNRAMEQDGMLGAAVGTSILGRPLSHPDFEPLFAALNRRKGVLFVHPIGESAGSPLMQASKLDRVIGYAAEVSTAILQLFQAGLTVKYPDIRIIAPHMGGYLPFLIQRLDRHRDWYLPKDAPSAGQLMRGIAYDTANPLPAALRLTAEVVGPERLLLGTDYPFEQGPSLRDHIEYILAAGLPEAQAKMIVDVNAADFLDMRSGAEQPPV
B5: 58 (protein)
chain: MARVIALEEHYATTEFLRGPGTWLASRPGIVEPAGDLGDGRIAAMDQAGVDLAVLSLAAPGVEQLDPDDAVRLARDCNDQLAAAVRRYPDRLAGFATVPTSAPDRAADELERAVRGLGFPGAVINGHSRGRYLDDPFFEPVLARAAELQAPIYLHPTIPPAGVIESSYAGFAEPVTFALATVGWGWHINTATHALRMILGGVFDRHPSLQMIIGHMGEATSFMLPRFDATLKPELTGLNHPVSSYLRENFHYTFANFNDHATYANLVAQVGIERVAFSADYPFGSMVDARAFLDGLPLSDDERAAISHRNAEKLLGL
modifications: Mycobacterium colombiense
B6: 75 (protein, listed as Ectocarpus siliculosus)
chain: MAKIDSYTHFACPAFMDHLEAESGHPMVFRGLFSSIPELSDIDLRIRYMDEHGIDVHCLVPLPWLECEPGLHADEGKALEACRIANDEMARVVARFPDRLIGVALIPTTTEQAMIQETTRAVKELGMAGVALFVGPTAKPPDMACFEGLYRTCEELGAVVWMHPCRPQSYADYDSYKGEGSKHQIWNTFGWIYDTSVAMVHIALAGVFRRYPGLKVVTHHHGAMVPFFTARFDTQRRNFQEVEGDDLLEDLRLFYCDTATFGESAANIQQAIDFFGKSQVLFGTDTPMDMGTRGMFTRTTIASVEALGAAPEDKESFYAGNVLDMLGERFAGISGARGAVAARPKGDSTRIAASL
B7: 64 (protein, listed as Achromobacter piechaudii)
chain: MAIQKIDMHAHFFPPITRQEAAALDPVNAPWLRPDADGATGQIMAGEREFRPVDATLWDPALRIEQMDRHGVDVQILCATPIMFGYTYPARPAADWAARMNDLALEHCAYAPSRLKALAQVPLQDLELACQEASRARAAGHLGVQIGNHVGPRDLDDETLVQFLIHCANNDIPVLVHPWDMMTDGRMKKWMLPWLVSMPAETQLGILSLILSGAFERIPRSLKLCFAHGGGSFAYLLGRVDNAWRHRDIIRQDCPQLPSSYTDRFYTDSAVFDPRSLRLLIDVMGEDRVLLGSDYPYPLGEQEVGRLVAHAELVPEVQQKILFRNTMTFFGLQPGLQPGLQS
B8: 59 (protein)
chain: MAPSVIDAHAHFLPGSLVTALRSRSDAPDIRTDSNGGESFGIYRTRMPYGRTYDALDVRLARMDELGVDRQILSLPGLFGIDSRPVSQALPLVRAFNDGVADLVRKHPDRFSGIAALPLADLDAAQEEYRRARGDLGLSGLILPGDTFVSVAAAERVRPLFELAATIGGLIFVHPGPLPDETGSAVDAPAPHTDSVVHRRVTVDIQNRMTEVMVTLALTDFLAPYPSVPVQVANLGGSLPFVIERMDHVYALRNPEAPPPSLSLRSLYVDAASLGPRAIALAAEVYGADRVLFGSDYPIFDDGRCLDAVRQTRLSPDARALIAGGNAARMLTQT
modifications: alpha proteobacterium
B9: 2 (protein, listed as Serratia sp.)
chain: MAKIICLEEHTLDKALVMASMPAALEQAPFLSDWGKTVTDGNLPDRSRPQIEKNDLINIKGADIGRGRLDDMDVAGITMQVLSVGGFPHLISAAEGVDLNRAANDRLADAVNAHPDRFAAFATLPWAQPDSAEKELERAVKELGFKGALLNGRPSTHFLDHPDYDGLLARFNALGVPLYLHPGLPVRSVQQAYYGGFSDEVTARLSMFGWGWHHEAGIHLLRLILSGAFDKYPNLQVISGHWGEMLPFWLQRLDDSLPQAATGLRRTIAQTFKEQVYVTPSGMLTLPHFQFIYALLGAERIIFSVDYPYQTLDGVKAFIQSLPVPEEAKEAIAFRNAERLLGLTS
B10: 73 (protein, listed as Sphaerobacter thermophilus)
chain: MARIDAHAHAQPPEYLDALLASGRYESVRDAEGRIVVRERGSRFLTITPQMHHPEQRVAEMDEAGIDMQILSVTTPQVYFLQGQAAVDLARRCNDYLADIVRSYPTRFRALASVPLTADPDAAVREFVRCLDDLGMVGAIIGSNIDGRPIDDPAFDAFYAEADRRATTLFIHPMVPAGIEVMNPYALAPLVGFMFDTTLAVSRLIFSGFFERYPRVKVLVGHLGAAVPYLAGRLDIGWRSYSDCQGIPHPPTEYIRRLYLDTVSFHAPALRCALETVGPDRIVFGSDYPHVIGDVGGAIASIQQALPATTHDGVLGHTAAELFGVSA
B11: 74 (protein, listed as Ramlibacter tataouinensis)
chain: MATVIDVHTHMFTTKWLELLKKEGGQYNIQTRPDGQQEIFRGNTPVVIPQKGHFDWKLRIQHMDQAGIDVSVVSLTCPNVYWGGEDVSVRAAREANDNVAQAQTAYPDRIRWFASLPWEYMATVIDVHTHMFTTKWLELLKKEGGQYNIQTRPDGQQEIFRGNTPVVIPQKGHFDWKLRIQHMDQAGIDVSVVSLTCPNVYWGGEDVSVRAAREANDNVAQAQTAYPDRIRWFASLPWEYPQRAVEELERSCAQGAAGVMVLANVAGRSLTDPLFAPVWAEIDRRALPVLVHPTDPPGVDLMDMTKFDLSWSVGFMFDTTLAITRMIFEGFFDRYPNLRIIASHGGGTLPYLVGRFEKGDEVELASRRQMKRKPTDYLRHIHYDCITYNLGALQYLISVVGAGQVMFGTDWPHWVHDTRGAFANTAQLPQEQTRAVRGANAQRLFKL
B12: 69 (protein, listed as Microbacterium testaceum)
chain: MATSTEGQDVTDVHAHLLMPGLHAEVERRVPDEVQAAADLELRRNGLASLQASGRMIGERFPRLTDVRARLAAMDEQGVDRQWVSPSPNHFYPWANEGLATWASGEANRLIAEHVALAPDRLVGLGVVPLQHPHLVVDALDDAVLGRGLAGVEISSFAGDVELSDERLESFWARAAELRAVVFLHPFGCSLDERLDRFYLSNTVGQPTENAVALSHLIFSGVLDRHPGLRLIAAHGGGYLPTAIGRSDRAWRVRPEARGCAHAPSTYLSKLWFDTVVHDERALRWLVEAAGADRVLLGSDFPFDMGLDDPVAFVRGAGLQDAEVSGILGGNAAELLRTRVHA
B13: 72 (protein)
chain: MADCPCCVSPKRRRLLGSVSAIAAGMMAGLPALAAQPSTAAAGTGKPLSIDIHAHYYSESFLGLLGGEGKQFGGHFFRNDDSFTFQTPAGGLGPLPMKFIDVEQRVRDMDNSGVDVQAISLSVPMVYWADRTLNAKLARAWNTAASDVHRKHPTRFVVLATLPMLNANDAIDELEFAAGLPGVRGIYMGTNINNRDLDDPLFSPIFKRIEQLNLPIFLHPQQTVGGARLADFYLSNLLGNPFDTAIAASHLILGGVLDKYPALHFSLPHAGGALPILVGRIDAGWSMRSETKRVAQKPSSYLRRFSYDTISHSGPTLDFLIRNIGADRLVLGSDYCFDMGYEQPVRFLDRLALPDDQKRMVVGGNAARLLNL
modifications: Cupriavidus necator
B14: 61 (protein, listed as Gordonia amarae)
chain: MATGAGSGVPSPADRVIVRSPGVIDVHAHAVLPMSLGCAGAAGPEIGYREDGSPFFRVGEYVLNGVRYEGSAFMDPEVRVAAMDAAGIGLQMISPNPITYFTRLDARSATDYARAHNDAIAEAAGRHPGRLVGAAQLPMQDVPAAIAELERSVRELGLVAAYIDTDIGDRTLDAPELDDFYSAAVELDVPVFIHPSPVGQEGPPDDTRLRRFDLDLLLGFSYDETLAVAALVFGGVLERHPALDVCLSHGGGTLAFVAGRFARAVAKPRAWVPEFLVENGIESYLRRLWLDTHVHSAGSLRLLIDTVGTDRLVFGTNFAGWDADGATEVDALGDLRETTTANAAHLLRLGRA
B15: 62 (protein)
chain: MAVGGKNFRDVTDQVWCPKKRIEDMDREGVDIQVLSPIPVTFSYWAKPEEAESMARIQNDFIAETVLAYPDRFVGLGTVPMQDGETAIREMERCITELNLHGIEIGTNVNGKNLDDPSFIEFFRMAEKWQVPIFIHPWETLGRDRMPHHNFMYTVGMPSETALAAATLIWSGIMEKFPRLKVCFAHGGGSFPYILPRLDQGWKVWPHLRLTTHPPSYYAKKFYFDSLNYDPINLKYMIERFGHEKIFMGSDYPFLLREVDPGKVIDETASLSEEQKAAMLGGNAAEFLNIDIKKRGVAYAESTNT
modifications: Bacillus thuringiensis serovar pulsiensis

Experiment: Saturation mutagenesis of SEQ ID NO:109: dicamba decarboxylation activity of point mutants (CO2 released), fold of backbone (Tables 7, 8, Megatable 1)
Conditions: decarboxylation activity (CO2 released) of point mutant vs unmutated backbone protein; backbone SEQ ID NO: 109

**Q.** With B1 as the molecule, how does the “Fold Activity” value read?
**A.** Its value is 1.5 fold.

**Q.** Which “Fold Activity” value does the source give for B2 here?
**A.** Its value is 1.7 fold.

**Q.** Which “Fold Activity” value does the source give for B3 here?
**A.** Its value is 1.3 fold.

**Q.** With B4 as the molecule, how does the “Fold Activity” value read?
**A.** Its value is 1.6 fold.

**Q.** For B5, which “Fold Activity” value is on record?
**A.** Its value is 1.5 fold.

**Q.** Which “Fold Activity” value does the source give for B6 here?
**A.** The value was 1.7 fold.

**Q.** With B7 as the molecule, how does the “Fold Activity” value read?
**A.** The value was 1.8 fold.

**Q.** With B8 as the molecule, how does the “Fold Activity” value read?
**A.** Its value is 0.9 fold.

**Q.** With B9 as the molecule, how does the “Fold Activity” value read?
**A.** Its value is 1.1 fold.

**Q.** With B10 as the molecule, how does the “Fold Activity” value read?
**A.** Its value is 1.2 fold.

**Q.** For B11, which “Fold Activity” value is on record?
**A.** Its value is 1.4 fold.

**Q.** With B12 as the molecule, how does the “Fold Activity” value read?
**A.** The value was 1.3 fold.

**Q.** Which “Fold Activity” value does the source give for B13 here?
**A.** Its value is 1.2 fold.

**Q.** For B14, which “Fold Activity” value is on record?
**A.** Its value is 2.4 fold.

**Q.** With B15 as the molecule, how does the “Fold Activity” value read?
**A.** Its value is 1 fold.

From patent US20160040149A1, “Compositions Having Dicamba Decarboxylase Activity and Methods of Use” (priority 2013, published 2016)
